Test results from publication PMC10144703, “Molecular Mechanism of Sirtuin 1 Inhibition by Human Immunodeficiency Virus 1 Tat Protein” (Life, 2023).
Where no end group is shown, it is not given here.

Molecular target: human mini-Sirt1 (aa 183-505-(GGGS)2-641-665) (human) (UniProt Q96EB6)
Sequence (Q96EB6 other isoform, or with tags, fused parts or gaps): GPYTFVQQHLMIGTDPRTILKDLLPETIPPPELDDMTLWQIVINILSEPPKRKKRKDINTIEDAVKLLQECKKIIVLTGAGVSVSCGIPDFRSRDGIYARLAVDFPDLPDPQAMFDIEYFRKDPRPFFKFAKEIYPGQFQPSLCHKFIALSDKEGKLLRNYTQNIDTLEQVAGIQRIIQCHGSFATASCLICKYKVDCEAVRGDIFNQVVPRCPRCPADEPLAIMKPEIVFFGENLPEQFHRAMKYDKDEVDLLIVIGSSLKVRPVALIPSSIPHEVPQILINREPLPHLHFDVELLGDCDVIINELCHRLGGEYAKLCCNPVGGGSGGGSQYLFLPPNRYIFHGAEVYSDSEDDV

B1: Tat-46–54 (non-acetylated) (peptide)
peptide: SYGRKKRRQ
modifications: not fully specified
  inhibition of mini-Sirt1 in the FdL assay; IC50: 131 µM
